The values below come from US20110117113A1, “IMMUNOGLOBULIN SINGLE VARIABLE DOMAIN DIRECTED AGAINST HUMAN CXCR4 AND OTHER CELL ASSOCIATED PROTEINS AND METHODS TO GENERATE THEM” (priority 2009, published 2011).

Assay [1] addresses T1, wildtype human CXCR4 (pcDNA3.1-CXCR4, expressed in HEK293T) (human, UniProt P61073 1-352).
T1 construct: whole, on cells; also called hCXCR4; HEK293T CXCR4
Briefly: competition with [125I]-CXCL12, HEK293T-CXCR4 membranes.

The target of assay [2] is CXCR4 mutation library clone 2396 (S178C) (human, UniProt P61073 1-352). Briefly: immunofluorescence on HEK-293T expressing the clone, normalised to wild type.
For assay [3], the target named is T2, CXCR4 mutation library clone 709 (P163L, S178I) (human, UniProt P61073 1-352).
T2 chain: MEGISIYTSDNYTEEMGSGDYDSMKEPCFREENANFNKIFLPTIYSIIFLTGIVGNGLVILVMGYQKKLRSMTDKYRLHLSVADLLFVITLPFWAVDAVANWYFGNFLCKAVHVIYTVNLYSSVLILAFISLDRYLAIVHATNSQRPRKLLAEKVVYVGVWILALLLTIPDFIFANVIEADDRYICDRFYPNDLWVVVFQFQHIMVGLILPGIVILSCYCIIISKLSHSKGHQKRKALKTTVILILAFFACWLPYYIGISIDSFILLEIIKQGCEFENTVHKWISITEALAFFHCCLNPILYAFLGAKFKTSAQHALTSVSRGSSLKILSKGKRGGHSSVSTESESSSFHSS
Described as above.

Assay [4] concerns the target CXCR4 mutation library clone 2084 (D187V) (human, UniProt P61073 1-352). Described as above.
Assay [5] has as its target CXCR4 mutation library clone 1129 (F189V) (human, UniProt P61073 1-352). Described as above.
In assay [6] the target is T3, CXCR4 mutation library clone 913 (F189S, K308R) (human, UniProt P61073 1-352).
T3 chain: T2 chain with L163P, I178S, F189S, K308R
The assay is described as above.

Assay [7] concerns the target T4, CXCR4 mutation library clone 465 (F189L, S319P, V155E) (human, UniProt P61073 1-352).
T4 chain: T2 chain with V155E, L163P, I178S, F189L, S319P
Described as above.

Assay [8] has as its target CXCR4 mutation library clone 2184 (P191T) (human, UniProt P61073 1-352). The assay is described as above.
Assay [9] concerns the target CXCR4 mutation library clone 3630 (W195R) (human, UniProt P61073 1-352). Described as above.
Assay [10] addresses T5, CXCR4 mutation library clone 185 (E277A, I245V, N298S) (human, UniProt P61073 1-352).
T5 chain: T2 chain with L163P, I178S, I245V, E277A, N298S
The description is as above.

Assay [11] deals with CXCR4 mutation library clone 3622 (E277G) (human, UniProt P61073 1-352). The description is as above.

Positions count from the first letter of the chain named.

T1 sequence (P61073 whole entry): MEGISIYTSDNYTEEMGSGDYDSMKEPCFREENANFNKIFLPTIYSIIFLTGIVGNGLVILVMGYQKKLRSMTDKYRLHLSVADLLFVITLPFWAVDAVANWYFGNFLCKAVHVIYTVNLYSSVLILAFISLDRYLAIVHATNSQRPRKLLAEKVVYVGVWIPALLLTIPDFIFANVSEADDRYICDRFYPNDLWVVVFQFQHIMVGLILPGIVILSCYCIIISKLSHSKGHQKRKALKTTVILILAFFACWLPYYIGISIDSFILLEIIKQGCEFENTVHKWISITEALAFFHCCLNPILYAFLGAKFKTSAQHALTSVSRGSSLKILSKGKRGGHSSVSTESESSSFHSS

B1: Nanobody 238D4 (VHH)
VHH: EVQLMESGGGLVQAGGSLRLSCAASGRTFNNYAMGWFRRAPGKEREFVAAITRSGVRSGVSAIYGDSVKDRFTISRDNAKNTLYLQMNSLKPEDTAVYTCAASAIGSGALRRFEYDYSGQGTQVTVSS
B1: the pKi in [1] is 8.22 pKi. In addition, the “% immunofluorescence” value in assay [2] is 28.2%; in assay [3], 30%; in [4], -8%; in [5], 5.2%; in assay [6], -16.9%; in assay [7], 12.2%. For the same molecule, the “% immunofluorescence” value in assay [8] amounted to 124%; in assay [9], 58.8%; in assay [10], 69.3%; in assay [11] it was 52.5%.
